Consider one molecule from patent US20210139610A1, “COMPOSITIONS AND METHODS FOR MEDIATING EPS” (priority 2018, published 2021).

Assay [1] deals with Non-typeable Haemophilus influenzae biofilms. Put plainly: NTHI in vitro biofilm formation, additive present from seeding (LIVE/DEAD, CLSM, COMSTAT). The class given is cell-based. The following applies: DNase (Pulmozyme) added at seeding. As to the method: FIG. 14: Non-typeable Haemophilus influenzae biofilms were grown for 40 h in supplemented BHI medium containing additives as indicated below each bar in 8 well chambered coverglass slides at 37° C. and 5% CO2. Biofilms were washed, stained with LIVE/DEAD®, fixed, and imaged by CLSM. Biofilm parameters were quantified using COMSTAT software.
Dicyclohexylamine inhibits spermidine synthase via a competitive inhibition mechanism, i.e. through binding to the same site on the protein as the putrescine substrate. Applicants therefore hypothesized that dicyclohexylamine would inhibit NTHi biofilm development. […]

For another assay, the system named is UPEC biofilms. Description: UPEC in vitro biofilm prevention (at seeding) / disruption (at 24 h). The class given is cell-based, uropathogenic Escherichia coli (UPEC). Here is the method: FIG. 6: Mature biofilms are resistant to disruption by DNase. DNase (Pulmozyme; 5 units) was added at seeding (prevention) or at 24 h (disruption) to the respective in vitro preformed NTHI and UPEC biofilms. After a total of 40 h, biofilms were stained with LIVE/DEAD®, visualized via CLSM and analyzed by COMSTAT. Bars represent the SEM. Statistical significance compared to control was assessed by unpaired t-tests, *P<0.05; **P<0.01.
FIGS. 35A-35D: DNABII proteins and polyamines (PAs) interact synergistically to induce DNase resistance. […] Biofilms were stained, fixed, visualized via CLSM, and analyzed by COMSTAT. […] Statistical significance compared to Control (No DNase) was assessed by unpaired t-tests, **P<0.01.
FIG. 49: Z-DNA stabilization stimulates biofilm formation. […] Biofilms were stained, fixed, visualized via CLSM, and analyzed by COMSTAT. […] Statistical significance compared to Control (no antibodies) was assessed by paired t-tests, *P<0.05, **P<0.01.
Applicants evaluated the antibiofilm effect of Pulmozyme®, a recombinant human DNase that is used in conjunction with standard therapies for the management of cystic fibrosis (CF) patients to improve pulmonary function. […] The resultant biofilms were stained with LIVE/DEAD® and evaluated using CLSM and COMSTAT analysis.

Assay [2] deals with T1, DNABII-polyamine dependent DNA structures (Haemophilus influenzae, UniProt P43722).
T1 sequence (P43722 whole entry, looked up): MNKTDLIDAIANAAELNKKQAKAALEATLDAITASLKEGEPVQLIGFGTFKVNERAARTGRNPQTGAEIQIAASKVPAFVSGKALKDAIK
Description: EPS scaffold mimetic (gDNA + HU + spermidine) structures, CLSM. The following applies: gDNA 2 μg/ml + HU + spermidine; Pulmozyme treatment. Format: biochemical. Here is the method: FIGS. 4A-4B: Anti-DNABII disrupts DNABII-polyamine (PA) dependent structures. (FIG. 4A) DNA structures were formed by incubating spermidine (300 μM) and HU (1 μM) in buffer that contained genomic DNA (gDNA; 2 μg/ml) for 40 h. Immunofluorescence CLSM images of DNABII-polyamine dependent DNA structures. Probed for DNABII proteins (white; indicated on the right side of the image) and counterstained with DAPI (white; indicated on the left side of the image). DNABII polyamine dependent DNA structures incorporate DNABII proteins. (FIG. 4B) EPS structures were formed as in (FIG. 4A) for 24 h and treated for additional 16 h with 1:50 dilution of DNABII antiserum (indicated below the image). Fluorescence CLSM images stained with DAPI (white). DNABII-polyamine dependent DNA structures require DNABII proteins.
FIG. 45: Polyamines and DNABII proteins stimulate Z-DNA, which is DNAse resistant. Immunofluorescence images of EPS scaffold mimetic formed de novo by addition of DNABII protein (HUNTHI, 500 nM) and spermidine (300 μM) to purified genomic DNA (2 μg/ml) and incubation at 37° C. for 16 h. […]
Applicants hypothesized that DNABII and polyamines interact with eDNA synergistically to confer DNase resistance to mature biofilms. […] Degradation was assessed by agarose gel electrophoresis and UV illumination. […]

“Also recorded” adds a separate entry of the source.

B1: DNase: Pulmozyme, a recombinant human DNase used for management of cystic fibrosis patients (protein, UniProt P24855 23-282, looked up)
Deoxyribonuclease-1: LKIAAFNIQTFGETKMSNATLVSYIVQILSRYDIALVQEVRDSHLTAVGKLLDNLNQDAPDTYHYVVSEPLGRNSYKERYLFVYRPDQVSAVDSYYYDDGCEPCGNDTFNREPAIVRFFSRFTEVREFAIVPLHAAPGDAVAEIDALYDVYLDVQEKWGLEDVMLMGDFNAGCSYVRPSQWSSIRLWTSPTFQWLIPDSADTTATPTHCAYDRIVVAGMLLRGAVVPDSALPFNFQAAYGLSDQLAQAISDHYPVEVMLK
For the molecule B1, the “NTHI biofilm prevention (average thickness, biomass)” value in assay [1] was “significant reduction in average thickness and biomass of NTHI and UPEC biofilms; also recorded: can prevent formation of”. Besides, in the assay on UPEC biofilms (DNase (Pulmozyme) added at 24 h), the “UPEC mature biofilm disruption” value was “unable to disrupt mature biofilms; also recorded: not disrupt extant biofilms”. Also, the “UPEC biofilm prevention (average thickness, biomass)” value in the assay on UPEC biofilms (DNase (Pulmozyme) added at seeding) is “significant reduction in average thickness and biomass of NTHI and UPEC biofilms; also recorded: can prevent”. In assay [2], the “effect of DNase on EPS scaffold mimetic structures” value is “DNA structures were resistant to DNase; also recorded: selectively eliminated B-DNA whereas Z-DNA remained intact”.
